In patent US20120269821A1 (published 2012):

Legend:
CAP206.1.B5 envelope [1] = biological target: CAP206.1.B5 envelope (HIV-1); test: cell-based or functional assay; set-up: unit not given beside the values
ZM197M.PB7 envelope [2] = biological target: ZM197M.PB7 envelope (HIV-1); test: cell-based or functional assay; set-up: unit not given beside the values
Du156.12 envelope [3] = biological target: Du156.12 envelope (HIV-1); test: cell-based or functional assay; set-up: unit not given beside the values
TRO.11 envelope = TRO.11 envelope (HIV-1); test: cell-based or functional assay; set-up: unit not given beside the values
QH0692.42 envelope [4] = biological target: QH0692.42 envelope (HIV-1); test: cell-based or functional assay; set-up: unit not given beside the values
Du422.1 envelope [5] = biological target: Du422.1 envelope (HIV-1); test: cell-based or functional assay; set-up: unit not given beside the values
CAP206.1.B5 envelope [6] = biological target: CAP206.1.B5 envelope (HIV-1); test: cell-based or functional assay
ZM197M.PB7 envelope [7] = biological target: ZM197M.PB7 envelope (HIV-1); test: cell-based or functional assay
Du156.12 envelope [8] = biological target: Du156.12 envelope (HIV-1); test: cell-based or functional assay
QH0692.42 envelope [9] = biological target: QH0692.42 envelope (HIV-1); test: cell-based or functional assay
Du422.1 envelope [10] = biological target: Du422.1 envelope (HIV-1); test: cell-based or functional assay
SC422661.8 envelope = SC422661.8 envelope (HIV-1); test: cell-based or functional assay
HIV-1 gp41 = HIV-1 gp41 (HIV-1); test: antigen panel (luminex assay per paragraph 163); unit not given
MOJO gp140 = biological target: T1, MOJO gp140 (HIV-1); test: as above
T1 construct: domain: gp140

hepatitis E2 protein = hepatitis E2 protein (Hepatitis C); test: as above

B1: CAP206-CH12 (antibody, V domains shown)
VH: QVQLVQSGAEVKKPGSSVKLSCKASGGTFGSYSVTWVRQAPGQTFEWVGRIVPWVGVPNYAPKFQGRVTITADKSSTVYMELTSLRFEDTAVYYCATAYEASGLSYYYYMDDWGKGTTVTVSS
VL: EIVLTQSPGTLSLSPGERATLSCRASQSVTSSYLAWFRHKPGQAPRLLIYGASYRGTGIPDRISGSGSGTDFTLTISRLEPEDFAVYYCQHYGGSPGMYTFGQGTRLEIK
notes: also called mAb 2311; 2311
- IC50 in TZM-bl cells (CAP206.1.B5 envelope [1]): 5.9
- IC50 in TZM-bl cells (ZM197M.PB7 envelope [2]): 13
- IC50 in TZM-bl cells (Du156.12 envelope [3]): 14.9
- IC50 in TZM-bl cells (TRO.11 envelope): 17.5
- IC50 in TZM-bl cells (QH0692.42 envelope [4]): > 32
- IC50 in TZM-bl cells (Du422.1 envelope [5]): > 32
- IC50 in TZM-bl/FcγRI cells (CAP206.1.B5 envelope [6]): 700 µg/mL
- IC50 in TZM-bl/FcγRI cells (ZM197M.PB7 envelope [7]): 300 µg/mL
- IC50 in TZM-bl/FcγRI cells (Du156.12 envelope [8]): 600 µg/mL
- IC50 in TZM-bl/FcγRI cells (QH0692.42 envelope [9]): > 32000 µg/mL
- IC50 in TZM-bl/FcγRI cells (Du422.1 envelope [10]): 2700 µg/mL
- IC50 in TZM-bl/FcγRI cells (SC422661.8 envelope): 400 µg/mL
- reactivity (HIV-1 gp41): 1980
- reactivity (MOJO gp140): 2910
- reactivity (hepatitis E2 protein): 855
